PMC4484057, “Daple is a novel non-receptor GEF required for trimeric G protein activation in Wnt signaling” (eLife, 2015)

B1: His-Daple-CT (aa 1650–2028) (domain or fragment, human, UniProt Q9P219-1 1650-2028, looked up)
chain: GTAPPYVGVRPCSASPSSEMVTLEEFLEESNRSSPTHDTPSCRDDLLSDYFRKASDPPAIGGQPGPPAKKEGAKMPTNFVAPTVKMAAPTSEGRPLKPGQYVKPNFRLTEAEAPPSVAPRQAQPPQSLSLGRPRQAPVPPASHAPASRSASLSRAFSLASADLLRASGPEACKQESPQKLGAPEALGGRETGSHTLQSPAPPSSHSLARERTPLVGKAGSSCQGPGPRSRPLDTRRFSLAPPKEERLAPLHQSATAPAIATAGAGAAAAGSGSNSQLLHFSPAAAPAARTKPKAPPRSGEVATITPVRAGLSLSEGDGVPGQGCSEGLPAKSPGRSPDLAPHLGRALEDCSRGSVSKSSPASPEPGGDPQTVWYEYGCV
notes: Cloned from myc-Daple pcDNA 3.1 into pET28b between NdeI/EcoRI; also called His-Daple-CT WT; Daple-CT-WT; source: E. coli BL21 (DE3), purified (HisPur Cobalt Resin)
B5: His-Gαi3 (natural protein, rat, UniProt P08753 1-354, looked up)
chain: MGCTLSAEDKAAVERSKMIDRNLREDGEKAAKEVKLLLLGAGESGKSTIVKQMKIIHEDGYSEDECKQYKVVVYSNTIQSIIAIIRAMGRLKIDFGEAARADDARQLFVLAGSAEEGVMTSELAGVIKRLWRDGGVQACFSRSREYQLNDSASYYLNDLDRISQTNYIPTQQDVLRTRVKTTGIVETHFTFKELYFKMFDVGGQRSERKKWIHCFEGVTAIIFCVALSDYDLVLAEDEEMNRMHESMKLFDSICNNKWFTDTSIILFLNKKDLFEEKIKRSPLTICYPEYTGSNTYEEAAAYIQCQFEDLNRRKDTKEVYTHFTCATDTKNVQFVFDAVTDVIIKNNLKECGLY
notes: also called His-Gαi3-GDP; recombinant His-Gαi3; source: E. coli BL21 (DE3), purified (HisPur Cobalt Resin)

Tests used:
His-Gαi3 [1] = target: B5; assay: cell-based or functional assay
GST-Gαi3 = target: T1, GST-Gαi3 (rat, UniProt P08753 1-354); assay: pull-down; Gβγ displacement: GST-Gαi3·Gβγ preformed on glutathione-agarose beads (∼0.4 µM GST-Gαi3), 0.05–1 µM His-Daple-CT, 5 hr at 4°C, GDP; bound Gβγ by immunoblot fitted to a single-site competition curve; conditions: both partners purified
T1 construct: Gαi3, rat, in pGEX-4T-1; Loaded with GDP, GDP + AlF4- or GTPγS as the assay says; also called GST-Gαi3 WT; source: E. coli BL21 (DE3), purified (glutathione-Sepharose 4B)

[2] = target: B1; assay: pull-down; GST-Gα protein (5 µg) preloaded with GDP (inactive) on glutathione beads; purified His-Daple-CT (3 µg); 4 hr at 4°C; 50 mM Tris-HCl pH 7.4, 100 mM NaCl, 0.4% NP-40, 10 mM MgCl2, 5 mM EDTA, 30 µM GDP, 2 mM DTT; immunoblot; conditions: both partners purified
GST-Daple-CT = target: T2, GST-Daple-CT (human, UniProt Q9P219-1 1650-2028); assay: pull-down; GST-Daple-CT or GST-GIV-CT immobilised on glutathione-agarose beads; 0.01–3 µM purified His-Gαi3 (GDP-loaded); band intensities of immunoblots fitted to a single-site binding hyperbola; four independent experiments; conditions: both partners purified
T2 construct: Daple (CCDC88C), human, C-terminal region; pGEX-4T construct; also called GST-Daple-CT WT; source: E. coli BL21 (DE3), purified (glutathione-Sepharose 4B)
T2 sequence (looked up): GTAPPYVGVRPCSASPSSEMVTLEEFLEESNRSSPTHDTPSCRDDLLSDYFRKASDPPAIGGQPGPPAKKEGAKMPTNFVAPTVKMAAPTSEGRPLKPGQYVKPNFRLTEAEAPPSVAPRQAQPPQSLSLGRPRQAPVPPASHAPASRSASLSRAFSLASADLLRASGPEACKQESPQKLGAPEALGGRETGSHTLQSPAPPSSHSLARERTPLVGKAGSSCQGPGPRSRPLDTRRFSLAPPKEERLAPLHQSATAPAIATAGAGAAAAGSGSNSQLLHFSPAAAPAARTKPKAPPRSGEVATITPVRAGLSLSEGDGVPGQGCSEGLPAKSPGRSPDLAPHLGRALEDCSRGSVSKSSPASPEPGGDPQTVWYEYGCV

His-Gαi3 [3] = target: B5; assay: as above; conditions: both partners purified

Question: Which “steady-state GTPase activity of His-Gαi3 with 2 µM His-Daple-CT, over the basal activity” value (His-Gαi3 [1]) does the source give for B1 here?
Answer: ~3 fold

Question: What about the IC50 (GST-Gαi3) of the same binder?
Answer: 160 nM

B2: GST-Gαi3 W258F (natural protein, rat, UniProt P08753 1-354, looked up)
chain: MGCTLSAEDKAAVERSKMIDRNLREDGEKAAKEVKLLLLGAGESGKSTIVKQMKIIHEDGYSEDECKQYKVVVYSNTIQSIIAIIRAMGRLKIDFGEAARADDARQLFVLAGSAEEGVMTSELAGVIKRLWRDGGVQACFSRSREYQLNDSASYYLNDLDRISQTNYIPTQQDVLRTRVKTTGIVETHFTFKELYFKMFDVGGQRSERKKWIHCFEGVTAIIFCVALSDYDLVLAEDEEMNRMHESMKLFDSICNNKFFTDTSIILFLNKKDLFEEKIKRSPLTICYPEYTGSNTYEEAAAYIQCQFEDLNRRKDTKEVYTHFTCATDTKNVQFVFDAVTDVIIKNNLKECGLY
notes: Gαi3, rat, W258F; source: E. coli BL21 (DE3), purified (glutathione-Sepharose 4B)
Question: Does B2 bind [2]?
Answer: binds

B3: GST-Gαi2 (natural protein, rat, UniProt P04897 1-355, looked up)
chain: MGCTVSAEDKAAAERSKMIDKNLREDGEKAAREVKLLLLGAGESGKSTIVKQMKIIHEDGYSEEECRQYRAVVYSNTIQSIMAIVKAMGNLQIDFADPQRADDARQLFALSCAAEEQGMLPEDLSGVIRRLWADHGVQACFGRSREYQLNDSAAYYLNDLERIAQSDYIPTQQDVLRTRVKTTGIVETHFTFKDLHFKMFDVGGQRSERKKWIHCFEGVTAIIFCVALSAYDLVLAEDEEMNRMHESMKLFDSICNNKWFTDTSIILFLNKKDLFEEKITQSPLTICFPEYTGANKYDEAASYIQSKFEDLNKRKDTKEIYTHFTCATDTKNVQFVFDAVTDVIIKNNLKDCGLF
notes: Gαi2, rat, in pGEX-4T-1; also called GST-fused Gαi2; source: E. coli BL21 (DE3), purified (glutathione-Sepharose 4B)
Question: Does B3 bind [2]?
Answer: binds

B4: GST-Gαi3 K248M (natural protein, rat, UniProt P08753 1-354, looked up)
chain: MGCTLSAEDKAAVERSKMIDRNLREDGEKAAKEVKLLLLGAGESGKSTIVKQMKIIHEDGYSEDECKQYKVVVYSNTIQSIIAIIRAMGRLKIDFGEAARADDARQLFVLAGSAEEGVMTSELAGVIKRLWRDGGVQACFSRSREYQLNDSASYYLNDLDRISQTNYIPTQQDVLRTRVKTTGIVETHFTFKELYFKMFDVGGQRSERKKWIHCFEGVTAIIFCVALSDYDLVLAEDEEMNRMHESMMLFDSICNNKWFTDTSIILFLNKKDLFEEKIKRSPLTICYPEYTGSNTYEEAAAYIQCQFEDLNRRKDTKEVYTHFTCATDTKNVQFVFDAVTDVIIKNNLKECGLY
notes: Gαi3, rat, K248M; source: E. coli BL21 (DE3), purified (glutathione-Sepharose 4B)
Question: Does B4 bind [2]?
Answer: binds

Question: For B5, which Kd (GST-Daple-CT) is on record?
Answer: 110 nM

B6: GST-GIV-CT (aa 1671–1755) (domain or fragment, UniProt Q3V6T2 1671-1755, looked up)
chain: IKTGSPGSEVVTLQQFLEESNKLTSVQIKSSSQENLLDEVMKSLSVSSDFLGKDKPVSCGLARSVSGKTPGDFYDRRTTKPEFLR
notes: GIV (CCDC88A, Girdin), aa 1671–1755, holds the GBA motif; also called GST-GIV CT 1671–1755 aa; source: E. coli BL21 (DE3), purified (glutathione-Sepharose 4B)
Question: How did the Kd (His-Gαi3 [3]) turn out when B6 was run?
Answer: 240 nM
